The text below walks through data of US20230303715A1.

In assay [1] the target is biotinylated human FcRn (produced by Protocol 1) (human) (UniProt P55899). The assay can be described thus: SPR Biacore T200, FcRn on neutravidin, pH 6.
Another assay addresses FcγRI (UniProt P12314). Nature of the assay: SPR ProteOn, Ab on HER2 chip, equilibrium fit.
Assay [2] deals with FcγRIII (UniProt P08637). The assay can be described thus: SPR ProteOn, Ab on HER2 chip, equilibrium fit.
In assay [3] the target is FcγRIIaH (UniProt P12318). Nature of the assay: SPR ProteOn, Ab on HER2 chip, equilibrium fit.
Assay [4] deals with FcγRIIaR (UniProt P12318). Nature of the assay: SPR ProteOn, Ab on HER2 chip, equilibrium fit.
Assay [5] addresses biotinylated human FcRn (produced by Protocol 1) (human) (UniProt P55899). The assay can be described thus: SPR; KD wt/KD mut vs parental variant.
The target of assay [6] is FcγRIIa (UniProt P12318). Nature of the assay: SPR; KD wt/KD mut vs 16588.
Assay [7] addresses FcγRIIb (UniProt P31994). Nature of the assay: SPR; KD wt/KD mut vs 16588.
For assay [8], the target named is FcγRIIa (UniProt P12318). Nature of the assay: SPR Biacore, Ab on HER2 chip.
Assay [9] addresses FcγRIIb (UniProt P31994). Nature of the assay: SPR Biacore, Ab on HER2 chip.
The target of assay [10] is soluble human FcRn (human) (UniProt P55899). The assay can be described thus: SPR ProteOn, Ab on protein L, pH 6.0.
Assay [11] addresses FcγRIIaH (UniProt P12318). The assay can be described thus: SPR; KD wt/KD mut vs parental variant.
Assay [12] has as its target FcγRIIaR (UniProt P12318). Nature of the assay: SPR; KD wt/KD mut vs parental variant.
Assay [13] has as its target FcγRIIb (UniProt P31994). The assay can be described thus: SPR; KD wt/KD mut vs parental variant.
Assay [14] deals with FcγRIIb (UniProt P31994). Nature of the assay: SPR ProteOn, Ab on HER2 chip, equilibrium fit.
Assay [15] concerns the target FcγRIII (UniProt P08637). The assay can be described thus: SPR; KD wt/KD mut vs parental variant.
Assay [16] addresses FcγRIIa (UniProt P12318). The assay can be described thus: SPR Biacore, Ab on HER2 chip; KD called ambiguous.
The target in assay [17] is FcγRIIb (UniProt P31994). Nature of the assay: SPR Biacore, Ab on HER2 chip; KD called ambiguous.

soluble human FcRn (human), sequence (P55899 24-297 limits assumed, chain 1 of 2): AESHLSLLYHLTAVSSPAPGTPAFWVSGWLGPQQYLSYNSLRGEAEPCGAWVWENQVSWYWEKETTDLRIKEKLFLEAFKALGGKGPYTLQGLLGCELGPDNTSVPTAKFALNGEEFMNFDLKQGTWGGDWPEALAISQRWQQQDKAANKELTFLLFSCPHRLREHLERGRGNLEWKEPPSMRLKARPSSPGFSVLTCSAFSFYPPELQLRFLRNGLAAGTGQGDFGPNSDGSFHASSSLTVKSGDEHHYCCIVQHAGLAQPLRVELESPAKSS
soluble human FcRn (human), sequence (P61769 21-119 limits assumed, chain 2 of 2, further chain): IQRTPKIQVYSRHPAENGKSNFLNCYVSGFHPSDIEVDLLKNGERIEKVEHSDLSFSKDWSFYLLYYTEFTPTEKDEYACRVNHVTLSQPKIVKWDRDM
biotinylated human FcRn (produced by Protocol 1) (human), sequence (P55899 24-297 limits assumed, chain 1 of 2): as the sequence (P55899 24-297 limits assumed, chain 1 of 2) above
biotinylated human FcRn (produced by Protocol 1) (human), sequence (P61769 21-119 limits assumed, chain 2 of 2, further chain): as the sequence (P61769 21-119 limits assumed, chain 2 of 2, further chain) above
FcγRIII, sequence (P08637 17-208 limits assumed): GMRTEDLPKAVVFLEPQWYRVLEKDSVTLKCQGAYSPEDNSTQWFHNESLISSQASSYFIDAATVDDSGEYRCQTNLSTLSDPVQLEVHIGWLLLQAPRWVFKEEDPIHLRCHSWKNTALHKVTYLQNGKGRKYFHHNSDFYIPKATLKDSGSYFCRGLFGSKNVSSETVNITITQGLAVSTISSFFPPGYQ
FcγRIIb, sequence (P31994 43-217 limits assumed): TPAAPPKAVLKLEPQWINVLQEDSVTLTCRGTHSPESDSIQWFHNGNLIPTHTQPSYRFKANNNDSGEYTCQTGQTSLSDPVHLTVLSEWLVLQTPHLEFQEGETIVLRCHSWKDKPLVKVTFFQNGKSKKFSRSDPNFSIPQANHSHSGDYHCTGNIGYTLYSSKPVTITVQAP
FcγRIIaH, sequence (P12318 34-217 limits assumed): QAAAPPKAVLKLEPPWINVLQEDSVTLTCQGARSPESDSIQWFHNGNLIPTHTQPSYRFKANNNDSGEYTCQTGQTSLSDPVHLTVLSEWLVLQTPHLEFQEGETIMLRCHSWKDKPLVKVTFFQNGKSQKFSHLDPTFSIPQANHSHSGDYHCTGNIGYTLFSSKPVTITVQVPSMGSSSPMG
FcγRIIaR, sequence (P12318 34-217 H167R limits assumed): as the sequence (P12318 34-217 limits assumed) above, with H134R counted along it
FcγRI, sequence (P12314 16-292 limits assumed): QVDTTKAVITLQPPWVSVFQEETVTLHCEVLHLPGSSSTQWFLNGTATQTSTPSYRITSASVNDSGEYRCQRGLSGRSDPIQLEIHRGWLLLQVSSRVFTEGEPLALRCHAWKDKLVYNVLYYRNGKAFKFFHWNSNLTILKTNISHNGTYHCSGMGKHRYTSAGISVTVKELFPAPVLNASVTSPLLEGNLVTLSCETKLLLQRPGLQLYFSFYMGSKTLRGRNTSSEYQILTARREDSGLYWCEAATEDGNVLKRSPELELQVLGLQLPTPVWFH

On to “trastuzumab Scaffold 6 (N297A) variant v31516 (M428F_T250V) (antibody)”, for which the figures for the Kd (in [1]; with FcγRI) were 360 nM and 20 nM, respectively.

For “trastuzumab Scaffold 7 (S239D/I332E) variant v31519 (A287F_T250V) (antibody)”, the Kd in [1] amounted to 470 nM; with FcγRI it was 0.0108 nM; in the assay with FcγRIII [2], 29 nM; with FcγRIIaH [3] it was 655 nM; with FcγRIIaR [4], 685 nM.

Consider “trastuzumab Scaffold 6 (N297A) variant v31514 (A287F_M428F) (antibody)”, for which the Fold in assay [5] came out at 1.3. The Kd came to 369 nM in [1] and 16.2 nM with FcγRI.

“trastuzumab Scaffold 1 variant 19308 (M428F) (antibody)” returned a Relative FcγRIIa Binding in the assay with FcγRIIa [6] of 1.06. The Relative FcγRIIb Binding with FcγRIIb [7] turned out to be 1.08. Further, the equilibrium dissociation constant (Kd) came out at 1030 nM in the assay with FcγRIIa [8], 3510 nM with FcγRIIb [9] and 464 nM in assay [10].

As to “trastuzumab Scaffold 1 variant 19320 (L242C_K334C) (antibody)”, the Relative FcγRIIa Binding with FcγRIIa [6] was 0.71. Also, in the assay with FcγRIIb [7], the Relative FcγRIIb Binding was found to be 0.99. Moreover, the Kd was 1540 nM with FcγRIIa [8], 3820 nM with FcγRIIb [9] and 645 nM in assay [10].

Consider “trastuzumab Scaffold 7 (S239D/I332E) variant v31520 (M428F_T250V) (antibody)”, for which the Fold with FcγRIIaH [11] turned out to be 1.2; with FcγRIIaR [12], 1.2; in the assay with FcγRIIb [13] it was 1.1; in assay [5], 1.2. Besides, the Kd in assay [1] is 286 nM; in the assay with FcγRI, 0.0145 nM; with FcγRIII [2], 32.1 nM; with FcγRIIaH [3], 644 nM; with FcγRIIaR [4], 667 nM; with FcγRIIb [14] it was 1130 nM.

As to “trastuzumab Scaffold 1 variant 19317 (L309Q) (antibody)”, the Relative FcγRIIa Binding with FcγRIIa [6] stood at 0.96. Moreover, the Relative FcγRIIb Binding with FcγRIIb [7] came to 1.03. The Kd came to 1150 nM with FcγRIIa [8], 3680 nM in the assay with FcγRIIb [9] and 1000 nM in assay [10].

For the substance “trastuzumab variant v17078 (WT) (antibody)”, the Kd in assay [1] stood at 292 nM; with FcγRI it was 0.0894 nM; with FcγRIII [2], 1480 nM; in the assay with FcγRIIaR [4], 2070 nM; with FcγRIIb [14], 6850 nM.

Turning to “trastuzumab full-size antibody with homodimeric IgG1 Fc (Scaffold 1), variant 16588 (WT)”, the Kd was 3800 nM with FcγRIIb [9] and 641 nM in assay [10].

On to “trastuzumab Scaffold 1 variant 19303 (A287F) (antibody)”, for which the Kd with FcγRIIa [8] stood at 1070 nM; in assay [10], 690 nM.

For the substance “trastuzumab Scaffold 6 (N297A) variant v31515 (A287F_T250V) (antibody)”, the Fold in assay [5] came to 0.8. The results for the Kd (in assay [1]; with FcγRI) were 553 nM and 18.7 nM, respectively.

“trastuzumab full-size antibody with N297A (Scaffold 6), variant v31513”: the Kd turned out to be 467 nM in assay [1] and 25.7 nM with FcγRI.

On to “trastuzumab Scaffold 7 (S239D/I332E) variant v31518 (A287F_M428F) (antibody)”, for which the Fold with FcγRIII [15] was determined as 1; in the assay with FcγRIIaH [11], 1.2; in assay [5], 1.2. Besides, the Kd in assay [1] stood at 275 nM; in the assay with FcγRI, 0.0136 nM; with FcγRIII [2], 30.9 nM; with FcγRIIaH [3] it was 671 nM; with FcγRIIaR [4], 691 nM; in the assay with FcγRIIb [14], 1150 nM.

For the substance “trastuzumab full-size antibody with S239D and I332E (Scaffold 7), variant v31517”, the equilibrium dissociation constant (Kd) in assay [1] was 337 nM; with FcγRIII [2], 32 nM; in the assay with FcγRIIaH [3], 775 nM; in the assay with FcγRIIaR [4], 775 nM; with FcγRIIb [14] it was 1250 nM.

Consider “trastuzumab Scaffold 1 variant 19321 (A287C_L306C) (antibody)”, for which the Relative FcγRIIa Binding with FcγRIIa [6] was 0.98. Besides, in the assay with FcγRIIb [7], the Relative FcγRIIb Binding came to 1.03. For the same substance, the Kd in the assay with FcγRIIa [8] came out at 1130 nM; in the assay with FcγRIIb [9] it was 3670 nM; in [10], 693 nM.

Take “trastuzumab Scaffold 1 variant 19310 (T250V) (antibody)”: in the assay with FcγRIIa [6], the Relative FcγRIIa Binding worked out at 1.22. The substance also came in with a Relative FcγRIIb Binding with FcγRIIb [7] of 1.24. For the same substance, the Kd was found to be 899 nM with FcγRIIa [8], 3050 nM with FcγRIIb [9] and 821 nM in [10].

On to “trastuzumab Scaffold 1 variant 19326 (V263C_V302C) (antibody)”, for which, in the assay with FcγRIIa [6], the Relative FcγRIIa Binding was found to be 1.14. The substance further registered a Relative FcγRIIb Binding in the assay with FcγRIIb [7] of 1.35. In addition, the Kd in assay [10] is 604 nM; with FcγRIIa [16], 963 nM; with FcγRIIb [17], 2820 nM.

In the assay with FcγRIIa [6], “trastuzumab Scaffold 1 variant 19327 (L242C_I336C) (antibody)” showed a Relative FcγRIIa Binding of 0.97. Moreover, in the assay with FcγRIIb [7], the Relative FcγRIIb Binding came to 1.18. The Kd was determined as 1140 nM in the assay with FcγRIIa [8] and 3220 nM in the assay with FcγRIIb [9].
